Measured values from patent publication US20060247420A1, “Immune cell recptor ligand and immune cell receptor” (priority 2002, published 2006).

Legend:
Format in all cases: cell-based, human
peripheral CD8^+ T-cells [1] = experiment: CD8+ lymphocyte proliferation/expansion with K32 aAPCs ([3H] thymidine); settings: K32 aAPCs, 2 to 5 days
Text: (§1) CD8^+ lymphocyte stimulation and cytokine release. To analyze the effects of Letal on the T-cell proliferation and production of cytokines, a previously described artificial antigen-presenting cell (aAPC) model was used (Maus et al, Nat. Biotechnol. 20(2):143-148 (2002)). Briefly, the system is based on the stable expression of the human low-affinity Fcγ receptor, CD32, on K562 cells (K32 cell line). K32 cell-based aAPCs were additionally transduced with Letal or with the empty vector as described above, irradiated with 100Gy, and washed twice with RPMI medium. Letal^+-K32 cells or mock transductants were loaded, when indicated, with anti-CD3 (OKT3), or anti-CD3 plus anti-CD28 (mAbs; 9.3) monoclonal antibodies at 0.5 μg/ml for 10 min at room temperature. Loaded &APCs were mixed with CD8^+ T-cells at a 1:2 ratio and the T-cell concentration was maintained at 0.5×10^6 cells/ml throughout the culture. Cultures were pulsed with 1 μCi of [^3H] thymidine from day 2 to day 5 and incorporated radioactivity was determined using a 1450 Microbeta scintillation counter (Wallac, Turku, Finland). The amounts of secreted IL-2 and IFNγ were determined by commercial ELISA, following the manufacturer's instructions (R & D Systems). Flow cytometry was performed with a FACScalibur (BD Biosciences, San Jose, Calif.). […]

[2] = test system: NKG2D on peripheral CD8^+ T-cells; experiment: NKG2D expression on CD8+ lymphocytes after co-culture with K32 aAPCs, flow cytometry; settings: peripheral CD8^+ T-cells co-cultured 4 days with K32 aAPCs; versus mock-transduced K32
Text: as §1

CD8^+ lymphocytes = experiment: Anti-CD95 (EOS9.1) induced apoptosis of stimulated CD8+ lymphocytes, annexin-V; settings: treated 4 days; anti-Fas Ab, after 18 h
Protocol: (§2) Apoptosis assay. The percentage of apoptotic cells was determined after 17 h incubation with 50 μM cisplatin or 18 hs exposure to 0.1 μg/ml anti-CD95 mAb (EOS9.1; Pharmingen) by using the TACS annexin-V apoptosis detection kit, according to the manufacturer's instructions (R & D Systems). Fas expression was determined by flow cytometry by using EOS9.1 as a primary Ab and a PE-labeled anti-mouse IgM (R6-60.2; Pharmingen) as a second Ab.
Letal engagement protects CD8^+ T-cells from FasL-induced apoptosis. […] Because ovarian carcinomas express FasL and other lymphocyte-depleting death ligands (Rabinowich et al, J. Clin. Invest. 101:2579-2588 (1998)), the prevalence of FasL expression and its impact on TILs was determined in 42 stage III ovarian carcinoma specimens. Strong FasL immunoreactivity was detected in tumor cells in areas of selected specimens (FIG. 10A), as well as in a proportion of stromal leukocytes. To test whether Letal promotes the generation of activated T-cell subpopulations that are able to resist the pro-apoptotic tumor microenvironment, peripheral CD8^+ T-cells were stimulated for 4 days with CD3/Letal, CD3/CD28, or anti-CD3 alone, and expression of Fas was measured by flow cytometry. […]

peripheral CD8^+ T-cells [3] = experiment: Cisplatin-induced apoptosis of pre-stimulated CD8+ lymphocytes, annexin-V; settings: pre-stimulated 3 days; 50 μM cisplatin for 17 hr
Protocol: as §2
Cytotoxic chemotherapy can, however, deplete tumor-specific effector T-cells (Lee et al, Nat. Med. 5:677-685 (1999)). Because the glycolytic pathway is implicated in lymphocyte survival (Plas et al, Nat. Immunol. 3:515-521 (2002)), a determination was made as to whether Letal could protect T-cells from early apoptotic death induced by genotoxic drugs.

[4] = test system: SKOV3 chemoresistant ovarian carcinoma cells; experiment: NK cell cytotoxicity against Letal+ or control SKOV3 cells, 51Cr release; settings: IL-15 activated NK cells; Letal^+ versus control SKOV3
Protocol: GPI-specific phospholipase-C treatment, ^51Cr release and apoptosis assay. Letal^+ and Letal^− A2780 cells were treated with 2 U/ml GPI-specific phospholipase-C (Sigma) at 37° C. for 1 hr. A standard ^51Cr-release assay was performed using 8,000 ^51Cr-labeled targets/well.
For analysis of the NK-dependent anti-tumor immune response, the cytotoxicity of NK cells against Letal^+ or control SKOV3 chemoresistant ovarian carcinoma cells was compared.

B1: Letal: MHC-I related transmembrane ligand for the NKG2D receptor, polypeptide of SEQ ID NO:8; tested as expressed on transduced cells (protein)
chain: GGHSLCFNFTIKSLSRPGQPWCEAQVFLNKNLFLQYNSDNNMVKPLGLLGKKVYATSTWGELTQTLGEVGRDLRMLLCDIKPQIKTSDPSTLQVEMFCQREAERCTGASWQFATNGEKSLLFDAMNMTWTVINHEASKIKETWKKDRGLEKYFRKLSKGDCDHWLREFLGHWEAMPEPTVSPVNASDIHWSSSSLPDRWIILGAFILLVLMGIVLICVWWQNGEWQAGLWPLRTS
**Q.** Which “proliferation / activation of CD8^+ cells” value (peripheral CD8^+ T-cells [1]) does the source give for B1 here?
**A.** Its value is “No activation”.

**Q.** What about the “increase of NKG2D expression” value [2] of the same molecule?
**A.** Its value is 2 fold.

**Q.** And the “lymphocytes that resist apoptosis” value (CD8^+ lymphocytes)?
**A.** The value was “More than 25%”.

**Q.** And the apoptosis after cisplatin (peripheral CD8^+ T-cells [3])?
**A.** Its apoptosis after cisplatin is “markedly stronger protection”.

**Q.** And the “killing of SKOV3 cells by NK effectors” value [4]?
**A.** The value was “increased killing”.
